Results published in patent US20200247855A1, “THERAPY AND DIAGNOSTICS” (OXFORD UNIVERSITY INNOVATION LIMITED, priority 2017, published 2020).
Entries after “also recorded” stand apart in the source; their conditions may differ.

How the values were obtained:
CXCL8_HUMAN = biological target: T1, CXCL8_HUMAN (Homo sapiens, UniProt P10145); assay: Yeast surface display (YSD) FACS binding; set-up: label (chemical); conditions: FACS re-test; mean percent shift where several clones
T1 sequence (P10145 21-99): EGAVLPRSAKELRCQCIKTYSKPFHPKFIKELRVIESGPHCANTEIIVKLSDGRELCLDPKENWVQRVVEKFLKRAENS
Experimental: (§1) Table 1. Tick CKBPs described in PCT/GB2017/050563 and [17]. Tick peptide sequences isolated in yeast surface display fluorescent-activated cell sorting (FACS) screens using a labelled chemokine. Identity with Evasin-1, 4 or 3 was calculated using BLAST. Abbreviations: IXORI—Ixodes ricinus, RHISA—Rhipicephalus sanguineus, AMBMA—Amblyomma maculatum, AMBPA—Amblyomma parvum, AMBTR—Amblyomma triste, AMBAM—Amblyomma americanum, AMBCA—Amblyomma cajennense, RHIPU—Rhipicephalus pulchellus. Table 2A-C. Binding characteristics of tick CKBPs previously disclosed (PCT/GB2017/050563 and [17]). All members of the human chemokine family[164] are listed in column 1. Binding to human chemokines was determined for 14 tick CKBPs using biolayer interferometry (BLI) with calculated Kd shown as Molar (Moles/Litre). Binding data for 17 other novel tick CKBPs was assayed using yeast surface display[17,166],with positive binding results shown as “YES”. For biolayer interferometry, His-tagged purified tick CKBP was bound to a Ni-NINTA sensor on an OctetRed® 384 system, and then binding to each chemokine listed (with the exception of CCL25, CCL26, CXCL16, CXCL17, CXCL4L1, XCL2) was assayed in a cross-binding screen at a chemokine concentration of 300 nM as described. For those chemokines showing binding to a tick CKBP in the cross-binding screen, binding assays were repeated using different doses of chemokine. Association, equilibrium and dissociation data were analysed using Octet software to create corresponding fitted curves, and used to calculate Kd. For yeast surface display, (YSD) background fluorescence was controlled for by using either an empty vector or by omitting the chemokine (i.e. using streptavidin-Alexa647 alone). An arbitrary threshold of >3 fold over background mean fluorescence intensity was chosen to describe confirmed re-tests. Where binding was detected data are indicated as “YES”. […] For yeast surface display data, empty cells represent chemokines that were not tested. Binding data published in relation to previously described tick CKBPs (Evasins-1, 4 and 3) is also shown for comparison in each of FIGS. 2A-C, with the relevant data obtained from publications: [20-22,32]. Table 3: Neutralisation of human chemokines by tick CKBPs previously disclosed (PCT/GB2017/050563 and [17]). Neutralising activity was determined using a quantitative THP1 cell migration assay in a 96-well Boyden chamber with chemokine in the bottom chamber as described. Cells migrating through to the bottom chamber at 4 hours were counted using flow cytometry in a 96 well plate format. IC50 for neutralisation was determined at the chemokine EC80 dose as determined using a range of tick CKBP concentrations. Data was analysed using GraphPad Prism to determine IC50, which is shown as Molar (Moles/Litre). Empty cells represent experiments not done. Table 4—Other previously described tick CKBPs. Tick CKBPs that were also described in PCT/GB2017/050563 and Singh et al. are indicated in “Notes”. Table 5.—Novel tick CKBPs of the invention. Table 6. […] The peptide sequence prefix indicates the identity, and suffix indicate the tick species as follows: AMBCA, Amblyomma cajennense and IXORI, Ixodes ricinus. […] Certain tick peptides e.g. P1074_IXORI were recovered from screens performed with more than one chemokine. Individual yeast clones recovered from the library were re-tested using a FACS (fluorescence activated cell sorting), experiment. The binding of the peptide to the chemokine was assayed by measuring the percent (%), of yeast cells expressing the given peptide that exceeded a background threshold set by measuring the fluorescence of the yeast library pool treated with streptavidin-[…] alone. When more than one independent yeast clone was isolated for a given peptide-chemokine combination, the mean percent shift was calculated and reported in column 3. […]

CCL11_HUMAN = CCL11_HUMAN (Homo sapiens, UniProt P51671); assay: Biolayer interferometry (BLI) binding
Experimental: as §1

CCL13_HUMAN = CCL13_HUMAN (Homo sapiens, UniProt Q99616); assay: Biolayer interferometry (BLI) binding
Experimental: as §1

CCL14_HUMAN = biological target: T2, CCL14_HUMAN (Homo sapiens, UniProt Q16627); assay: Biolayer interferometry (BLI) binding
T2 sequence (Q16627 20-93): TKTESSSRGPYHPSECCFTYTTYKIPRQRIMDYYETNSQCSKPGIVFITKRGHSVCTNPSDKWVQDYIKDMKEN
Experimental: as §1

CCL18_HUMAN = biological target: T3, CCL18_HUMAN (Homo sapiens, UniProt P55774); assay: Biolayer interferometry (BLI) binding
T3 sequence (P55774 21-89): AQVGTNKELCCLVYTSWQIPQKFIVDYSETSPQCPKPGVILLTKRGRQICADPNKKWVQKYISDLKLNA
Experimental: as §1

CCL2_HUMAN = CCL2_HUMAN (Homo sapiens, UniProt P13500); assay: Biolayer interferometry (BLI) binding
Experimental: as §1

CCL3L1_HUMAN = CCL3L1_HUMAN (Homo sapiens, UniProt P16619); assay: Biolayer interferometry (BLI) binding
Experimental: as §1

CCL3_HUMAN = biological target: T4, CCL3_HUMAN (Homo sapiens, UniProt P10147); assay: Biolayer interferometry (BLI) binding
T4 sequence (P10147 24-92): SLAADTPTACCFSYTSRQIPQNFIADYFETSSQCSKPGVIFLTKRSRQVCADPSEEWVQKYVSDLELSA
Experimental: as §1

CCL4L1_HUMAN = biological target: T5, CCL4L1_HUMAN (Homo sapiens, UniProt Q8NHW4); assay: Biolayer interferometry (BLI) binding
T5 sequence (Q8NHW4 24-92): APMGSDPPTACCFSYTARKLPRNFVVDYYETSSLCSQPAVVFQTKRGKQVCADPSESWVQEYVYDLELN
Experimental: as §1

CCL4_HUMAN = biological target: T6, CCL4_HUMAN (Homo sapiens, UniProt P13236); assay: Biolayer interferometry (BLI) binding
T6 sequence (P13236 24-92): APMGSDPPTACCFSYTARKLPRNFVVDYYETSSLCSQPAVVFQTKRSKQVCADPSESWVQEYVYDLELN
Experimental: as §1

CCL7_HUMAN = CCL7_HUMAN (Homo sapiens, UniProt P80098); assay: Biolayer interferometry (BLI) binding
Experimental: as §1

CCL8_HUMAN = biological target: T7, CCL8_HUMAN (Homo sapiens, UniProt P80075); assay: Biolayer interferometry (BLI) binding; conditions: read-out: Kd, CCL8_HUMAN
T7 sequence (P80075 24-99): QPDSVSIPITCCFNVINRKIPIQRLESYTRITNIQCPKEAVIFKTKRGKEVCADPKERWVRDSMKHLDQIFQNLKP
Experimental: as §1

CCL5_HUMAN = biological target: T8, CCL5_HUMAN (Homo sapiens, UniProt P13501); assay: Yeast surface display (YSD) FACS binding
T8 sequence (P13501 24-91): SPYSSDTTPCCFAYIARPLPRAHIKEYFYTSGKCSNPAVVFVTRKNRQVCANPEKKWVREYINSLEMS
Experimental: as §1

chemokines = conditions: list of chemokines bound, from the literature [18,20-22]; cited from earlier work

Sequence of CCL13_HUMAN (Q99616 17-98): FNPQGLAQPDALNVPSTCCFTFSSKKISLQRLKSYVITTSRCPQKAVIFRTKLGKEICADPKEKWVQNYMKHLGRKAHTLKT
Sequence of CCL11_HUMAN (P51671 24-97): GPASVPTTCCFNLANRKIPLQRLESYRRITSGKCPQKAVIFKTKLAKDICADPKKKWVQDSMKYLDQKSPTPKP
Sequence of CCL2_HUMAN (P13500 24-99): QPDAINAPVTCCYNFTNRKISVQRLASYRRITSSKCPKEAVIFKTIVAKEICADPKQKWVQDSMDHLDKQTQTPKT
Sequence of CCL3L1_HUMAN (P16619 24-93): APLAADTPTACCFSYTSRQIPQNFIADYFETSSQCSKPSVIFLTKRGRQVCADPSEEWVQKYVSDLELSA
Sequence of CCL7_HUMAN (P80098 24-99): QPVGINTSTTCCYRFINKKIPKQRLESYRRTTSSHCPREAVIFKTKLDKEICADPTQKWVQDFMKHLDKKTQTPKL

Row | Molecule | Chemokines bound in yeast surface display and % cells over threshold fluorescence: CXCL8_HUMAN (CXCL8_HUMAN) | Kd (CCL11_HUMAN) [nM] | Kd (CCL13_HUMAN) [nM] | Kd (CCL14_HUMAN) [nM] | Kd (CCL18_HUMAN) [nM] | Kd (CCL2_HUMAN) [nM] | Kd (CCL3L1_HUMAN) [nM] | Kd (CCL3_HUMAN) [nM] | Kd (CCL4L1_HUMAN) [nM] | Kd (CCL4_HUMAN) [nM] | Kd (CCL7_HUMAN) [nM] | Kd (CCL8_HUMAN) [nM] | Binding to CCL5_HUMAN, YSD (CCL5_HUMAN) | Previously described chemokine binding (chemokines)
1 | P1127_IXORI: novel CXC-binding tick CKBP, Ixodes ricinus (protein, listed as Ixodes ricinus) AGKDDEHFSVDYCGMNCTQQEDGSWTACSGRNGECRCYHESGKRSGLCLSTTYIDFSEYGNLSDSDIAAASPRLSMKESH | CXCL8_HUMAN 43% |  |  |  |  |  |  |  |  |  |  |  |  | 
2 | P1181_AMBMA: tick CKBP, Amblyomma maculatum (protein, listed as Amblyomma maculatum) EEREDDNDYGGGCPFVVLGNGTHAKPAGCSHLCNGAPETLDNIECYNVTEEVAKRMTPDIPYTCWLGWCSKGECKRDNRTEVCYRGSERE |  | 20 | 19 | 47 | 10 | 74 | 3.3 | 2.2 | 35 | 53 | 120 | 14 |  | 
3 | P1063_AMBTR: tick CKBP, Amblyomma triste (protein, Amblyomma triste) QSEVGKNVPGCGDTETLEAPPQEKPPYYEYKDEEGCTQKVLESWFQAGERSTGRGQKKRGHGRRPSRVLRTVDCRKNCTVGITALPDGHLCLVPRGDPFTRGGAIKYGCYLGDCASGHCQHRYETVSCRLPAPDTTAKPYYVTPEK |  |  |  |  |  |  |  |  |  |  |  |  | YES (An arbitrary threshold of >3 fold over background mean fluorescence intensity was chosen to describe confirmed re-tests. Where binding was detected data are indicated as “YES”) | 
4 | P1182_AMBMA: tick CKBP, Amblyomma maculatum (protein, listed as Amblyomma maculatum) EPKDDNDYGGGCPFVVLGNGTHAKPAGCSHLCNGAPETLDNIECYNVTEEVAKRMTPGIPYACWLGWCNKGECKRGNRTEVCYRGSEEE |  | 28 | 56 | 50 | 33 | 74 | 9.5 | 5.4 | 92 | 63 |  | 29 |  | 
5 | P1128_IXORI: novel CXC-binding tick CKBP, Ixodes ricinus (protein, listed as Ixodes ricinus) KDDEHFSVDYCGMNCTQQEDGSWTACSGRNEECRCYHESGKKNGLCLSTTYIDFSQYGNPSDSDIAAASPRP | CXCL8_HUMAN 53% |  |  |  |  |  |  |  |  |  |  |  |  | 
6 | P983_AMBPA: tick CKBP; named P983_AMBCA in Table 1 (protein, Amblyomma cajennense) EDTGTEDDFDYGNTGCPFPVLGNYKSNMTKPVGCKNKCGSGYEVLNDTTPCYVIDQKVFNNMVPLRQYSKCPLGFCENGECKPNDQAEDCYKGREEQK |  | 21 | 17 | 81 |  | 14 | 2.1 | 3.5 |  | 8 | 32 | 7 |  | 
7 | P1180_AMBTR: tick CKBP, Amblyomma triste (protein, Amblyomma triste) EEPKDGYDYTEGCPFVVLGNGTHAKPAGCSHLCNGAPETLDDNMECYNVTEEVAKRMTPDIPYTCWLGWCSKGECKRDNRTEVCYRGSERE |  | 33 | 9 | 4.4 | 5.8 | 53 | 2.2 | 1.1 | 20 | 66 | 98 | 3.6 |  | 
8 | AAM-01: previously described tick CKBP, Amblyomma americanum (protein, listed as Amblyomma americanum) ESEGSVSTETEVISYEDDCQDDNSTCFIQTLNTTGEPRPVGCILECENSTQRLPNGTECLGLPGLAAVKMQRNVSYTCSVGLCNGEGVCDRTGLWIGCWTNTPPPNSTNVTTKPPTTTTASPGTG |  |  |  |  |  |  |  |  |  |  |  |  |  | CCL11, CCL24,; also recorded: CCL26, CCL2,; also recorded: CCL8, CCL7
9 | P1170_IXORI: novel CXC-binding tick CKBP, Ixodes ricinus (protein, listed as Ixodes ricinus) LGDEDQLFSVEYCGTNCTQQDDGKWTPCSGKNGKCKCYHEDGKRYGLCLYTEYTDFSQYPNPEGSEIENTRPRP | CXCL8_HUMAN 81% |  |  |  |  |  |  |  |  |  |  |  |  | 
10 | RPU-02: previously described tick CKBP, Rhipicephalus pulchellus (protein, listed as Rhipicephalus pulchellus) CEVQNTTLAEEDYDTGCGYNIVITKNKTLVVNCTMDCQPKMLMNESEPCLFNSSVPYDHMQPHHNYTCMEGICKNGTCVSPSNNITCWLPPPPVRYYPNETMVTSTIEPEA |  |  |  |  |  |  |  |  |  |  |  |  |  | CCL11, CCL24,; also recorded: CCL26, CCL2,; also recorded: CCL8, CCL7
11 | P1183_AMBTR: tick CKBP, Amblyomma triste (protein, Amblyomma triste) EAPKDDFEYDGGCPFVVLDNGTHVKPAGCSHLCNGAPETLDNIECYNVTEEVAKRMTPGIPYACWLGWCSKGECKRDNRTEVCYRGSEEE |  | 8.5 | 5.7 |  |  | 12 |  |  | 48 | 78 | 5.4 | 1100 |  | 
